Consider 2 molecules from patent US20240368250A1 (Ablynx, published 2024).

For assay [1], the target named is T1, Human FcRn (biotinylated human FcRn) (human, UniProt P61769 21-119).
T1 construct: Biotinylated human FcRn captured on a Series S Sensor Chip SA; also called human neonatal Fc receptor; hFcRn
The assay is described as follows: SPR Biacore 8K+, biotinylated hFcRn on SA chip (~500-600 RU), pH 6.0, bivalent analyte fit (kd1).

Assay [2] concerns the target T1, Human FcRn (biotinylated human FcRn). The assay is described as follows: SPR Biacore 8K+, biotinylated hFcRn on SA chip (~500-600 RU), pH 6.0, bivalent analyte fit.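 Further: analytes were Fc proteins binding to biotinylated human FcRn captured on a Series S streptavidin sensor chip.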
Source text: The Fc proteins were characterized by affinity determination for human FcRn at pH 6.0 on the Biacore 8K+ instrument. For affinity measurements, ˜500-600 RU of biotinylated human FcRn was captured on a Series S Sensor Chip SA. […] Evaluation of the sensorgrams was based on the Bivalent Analyte fit.
The target is the same in assay [3]. Put plainly: SPR Biacore 8K+, biotinylated hFcRn on SA chip (~500-600 RU), pH 6.0, bivalent analyte fit (ka1).
The target is the same in assay [4]. Put plainly: SPR Biacore 8K+, biotinylated hFcRn on SA chip (~500-600 RU), pH 6.0, bivalent analyte fit (KD1).

B1: TPP-66143 (Fc fusion)
chain 1: DVQLVESGGGVVQAGGSLSISCAASGGSLSNYVLGWFRQAPGKEREFVAAINWRGDITIGPPNVEGRFTISRDNAKNTGYLQMNSLAPDDTALYYCGAGTPLNPGAYIYDWSYDYWGRGTLVTVSSDKTHTCPPCPAPEAAGGPSVFLFPPKPKDTLMISRTPEVTCVVVDVSQEDPEVQFNWYVDGVEVHNAKTKPREEQFNSTYRVVSVLTVLHQDWLNGKEYKCKVSNKGLPSSIEKTISKAKGQPREPQVYTLPPCQEEMTKNQVSLWCLVKGFYPSDIAVEWESNGQPENNYKTTPPVLDSDGSFFLYSKLTVDKSRWQEGNVFSCSVMHEALHNHYTQKSLSLSLGGGGGSGGGGSGGGGSGGGGSGGGGSGGGGSGGGGSEVQLVESGGGVVQAGGSLSISCAASGGSLSNYVLGWFRQAPGKEREFVAAINWRGDITIGPPNVEGRFTISRDNAKNTGYLQMNSLAPDDTALYYCGAGTPLNPGAYIYDWSYDYWGRGTLVTVSSA
chain 2: DVQLVESGGGVVQAGGSLSISCAASGGSLSNYVLGWFRQAPGKEREFVAAINWRGDITIGPPNVEGRFTISRDNAKNTGYLQMNSLAPDDTALYYCGAGTPLNPGAYIYDWSYDYWGRGTLVTVSSDKTHTCPPCPAPEAAGGPSVFLFPPKPKDTLMISRTPEVTCVVVDVSQEDPEVQFNWYVDGVEVHNAKTKPREEQFNSTYRVVSVLTVLHQDWLNGKEYKCKVSNKGLPSSIEKTISKAKGQPREPQVCTLPPSQEEMTKNQVSLSCAVKGFYPSDIAVEWESNGQPENNYKTTPPVLDSDGSFFLVSKLTVDKSRWQEGNVFSCSVMHEALHNRFTQKSLSLSLG
notes: IgG4 FALA Fc knob-in-hole (hole chain H435R, Y436F) with three irrelevant ISVDs; control; also called control ISVD-Fc polypeptide
In turn, B1 registered a koff in assay [1] of 0.0779 s⁻¹. Further, in assay [2], the KD2 came to 4.24 M, the ka2 was 3.22e-05 1/RUs and the kd2 was 0.000136 s⁻¹. The molecule also came in with a kon in assay [3] of 82800 M⁻¹ s⁻¹. The molecule further gave a Kd in assay [4] of 941 nM.

B2: TPP-66175 (Fc fusion)
chain 1: DVQLVESGGGVVQAGGSLSISCAASGGSLSNYVLGWFRQAPGKEREFVAAINWRGDITIGPPNVEGRFTISRDNAKNTGYLQMNSLAPDDTALYYCGAGTPLNPGAYIYDWSYDYWGRGTLVTVSSDKTHTCPPCPAPEAAGGPSVFLFPPKPKDTLYITREPEVTCVVVDVSQEDPEVQFNWYVDGVEVHNAKTKPREEQFNSTYRVVSVLTVLHQDWLNGKEYKCKVSNKGLPSSIEKTISKAKGQPREPQVYTLPPCQEEMTKNQVSLWCLVKGFYPSDIAVEWESNGQPENNYKTTPPVLDSDGSFFLYSKLTVDKSRWQEGNVFSCSVMHEALHNHYTQKSLSLSLGGGGGSGGGGSGGGGSGGGGSGGGGSGGGGSGGGGSEVQLVESGGGVVQAGGSLSISCAASGGSLSNYVLGWFRQAPGKEREFVAAINWRGDITIGPPNVEGRFTISRDNAKNTGYLQMNSLAPDDTALYYCGAGTPLNPGAYIYDWSYDYWGRGTLVTVSSA
chain 2: DVQLVESGGGVVQAGGSLSISCAASGGSLSNYVLGWFRQAPGKEREFVAAINWRGDITIGPPNVEGRFTISRDNAKNTGYLQMNSLAPDDTALYYCGAGTPLNPGAYIYDWSYDYWGRGTLVTVSSDKTHTCPPCPAPEAAGGPSVFLFPPKPKDTLYITREPEVTCVVVDVSQEDPEVQFNWYVDGVEVHNAKTKPREEQFNSTYRVVSVLTVLHQDWLNGKEYKCKVSNKGLPSSIEKTISKAKGQPREPQVCTLPPSQEEMTKNQVSLSCAVKGFYPSDIAVEWESNGQPENNYKTTPPVLDSDGSFFLVSKLTVDKSRWQEGNVFSCSVMHEALHNRFTQKSLSLSLG
notes: IgG4 FALA Fc (YTE) knob-in-hole with three irrelevant ISVDs; control; also called control ISVD-Fc(YTE) polypeptide
In assay [1], B2 had a koff of 0.0167 s⁻¹. In assay [2], the KD2 was found to be 3.98 M, the ka2 is 0.0232 1/RUs and the kd2 was 0.0922 s⁻¹. Besides, the kon in assay [3] stood at 93300 M⁻¹ s⁻¹. In assay [4], this molecule displayed a Kd of 179 nM.
